Results on one substance are retold here after paper PMC4699573 (Molecular bioSystems, 2016).

The target of this experiment is T1, EcoR124I (Escherichia coli, UniProt P10484+P10485+P10486).
T1 sequence (P10485 1-404): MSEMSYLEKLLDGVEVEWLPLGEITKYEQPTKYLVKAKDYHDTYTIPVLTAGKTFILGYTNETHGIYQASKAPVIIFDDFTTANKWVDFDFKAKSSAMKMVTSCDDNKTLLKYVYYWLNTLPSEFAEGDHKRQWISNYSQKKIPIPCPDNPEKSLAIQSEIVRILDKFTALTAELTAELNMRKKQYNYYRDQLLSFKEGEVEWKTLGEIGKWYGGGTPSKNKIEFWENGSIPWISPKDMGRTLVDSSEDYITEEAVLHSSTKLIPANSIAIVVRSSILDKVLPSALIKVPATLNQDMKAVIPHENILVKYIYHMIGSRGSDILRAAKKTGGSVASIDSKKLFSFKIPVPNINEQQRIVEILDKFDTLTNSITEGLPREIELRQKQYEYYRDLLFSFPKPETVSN
T1 sequence (P10484 1-520): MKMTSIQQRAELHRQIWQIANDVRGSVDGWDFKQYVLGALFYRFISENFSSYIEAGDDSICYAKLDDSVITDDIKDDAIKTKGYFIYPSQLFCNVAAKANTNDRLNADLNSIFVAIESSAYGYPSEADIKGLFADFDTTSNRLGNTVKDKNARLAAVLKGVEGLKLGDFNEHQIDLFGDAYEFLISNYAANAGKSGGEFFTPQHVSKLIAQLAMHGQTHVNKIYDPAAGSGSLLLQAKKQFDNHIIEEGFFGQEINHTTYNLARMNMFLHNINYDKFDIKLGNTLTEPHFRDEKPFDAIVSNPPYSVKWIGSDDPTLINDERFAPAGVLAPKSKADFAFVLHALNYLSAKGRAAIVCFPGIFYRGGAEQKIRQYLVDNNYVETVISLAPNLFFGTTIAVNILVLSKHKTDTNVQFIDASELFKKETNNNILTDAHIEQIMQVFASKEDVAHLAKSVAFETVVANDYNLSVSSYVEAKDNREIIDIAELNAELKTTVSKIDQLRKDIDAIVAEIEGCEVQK
T1 sequence (P10486 1-1038): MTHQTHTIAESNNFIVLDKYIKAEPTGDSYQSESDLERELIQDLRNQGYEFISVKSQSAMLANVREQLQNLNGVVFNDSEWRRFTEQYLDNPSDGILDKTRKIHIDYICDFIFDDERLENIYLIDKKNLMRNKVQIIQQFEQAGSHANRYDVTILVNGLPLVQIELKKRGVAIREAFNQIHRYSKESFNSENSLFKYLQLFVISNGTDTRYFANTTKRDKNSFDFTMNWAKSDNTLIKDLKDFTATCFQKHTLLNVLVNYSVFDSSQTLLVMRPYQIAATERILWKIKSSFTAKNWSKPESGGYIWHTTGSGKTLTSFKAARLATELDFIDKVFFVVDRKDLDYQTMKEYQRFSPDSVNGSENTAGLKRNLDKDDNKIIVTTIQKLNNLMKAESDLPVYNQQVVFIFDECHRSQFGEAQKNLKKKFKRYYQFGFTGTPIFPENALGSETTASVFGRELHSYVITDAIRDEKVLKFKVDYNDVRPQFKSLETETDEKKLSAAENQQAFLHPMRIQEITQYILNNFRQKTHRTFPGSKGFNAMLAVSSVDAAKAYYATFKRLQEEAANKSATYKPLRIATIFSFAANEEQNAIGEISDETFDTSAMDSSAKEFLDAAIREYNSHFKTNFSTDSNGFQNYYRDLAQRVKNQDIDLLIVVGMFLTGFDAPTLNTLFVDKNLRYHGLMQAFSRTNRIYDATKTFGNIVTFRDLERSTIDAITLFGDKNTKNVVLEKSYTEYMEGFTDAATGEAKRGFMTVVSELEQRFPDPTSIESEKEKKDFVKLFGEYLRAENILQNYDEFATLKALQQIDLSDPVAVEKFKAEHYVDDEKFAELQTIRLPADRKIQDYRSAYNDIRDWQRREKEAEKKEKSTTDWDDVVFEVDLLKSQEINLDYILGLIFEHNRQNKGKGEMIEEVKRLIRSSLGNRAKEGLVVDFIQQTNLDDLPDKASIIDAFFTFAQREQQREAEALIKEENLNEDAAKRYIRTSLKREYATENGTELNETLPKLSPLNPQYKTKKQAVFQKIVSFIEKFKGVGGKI
As to the kind of experiment: Coupled spectrophotometric ATPase assay. The conditions noted are these: EcoR124I pre-incubated with protein, reaction initiated by scDNA; Figure S1. It is filed as biochemical.

Take “Ocr: anti-restriction protein of bacteriophage T7 (overcome classical restriction), mimics B-DNA”: the “Concentration at which ATP hydrolysis of EcoR124I is retarded / abolished” value is recorded as 100 nM.
